Key:
Assay in all cases: holdup assay
Parameters in all cases: key: below the threshold = too weak to quantify, mostly under pKd 3.1 to 4
[1] = biological target: MAGI3_2, Q5TCQ9
[2] = biological target: T1, CARD11, Q9BXL7
T1 sequence (Q9BXL7 662-765, limits assumed, looked up): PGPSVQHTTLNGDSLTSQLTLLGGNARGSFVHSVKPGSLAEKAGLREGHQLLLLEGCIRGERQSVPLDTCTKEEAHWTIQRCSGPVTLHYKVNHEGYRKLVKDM

[3] = biological target: T2, MPDZ_5, O75970
T2 sequence (O75970 695-796, limits assumed, looked up): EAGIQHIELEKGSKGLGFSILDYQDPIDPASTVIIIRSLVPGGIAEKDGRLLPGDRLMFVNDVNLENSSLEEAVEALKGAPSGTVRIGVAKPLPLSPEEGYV

[4] = biological target: DLG4_3, P78352
[5] = biological target: T3, SIPA1L2, Q9P2F8
T3 sequence (Q9P2F8 945-1036, limits assumed, looked up): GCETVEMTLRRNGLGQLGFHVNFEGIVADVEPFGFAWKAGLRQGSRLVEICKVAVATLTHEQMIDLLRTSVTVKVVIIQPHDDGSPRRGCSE

[6] = biological target: T4, HTRA4, P83105
T4 sequence (P83105 378-476, limits assumed, looked up): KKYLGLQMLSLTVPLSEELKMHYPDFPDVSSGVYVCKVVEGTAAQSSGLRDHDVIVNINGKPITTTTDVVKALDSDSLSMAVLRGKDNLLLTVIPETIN

[7] = biological target: Inadl_1, Q8NI35
[8] = biological target: Inadl_5, Q8NI35
[9] = biological target: GRIP2_3, Q9C0E4
[10] = biological target: T5, FRMPD1, Q5SYB0
T5 sequence (Q5SYB0 52-145, limits assumed, looked up): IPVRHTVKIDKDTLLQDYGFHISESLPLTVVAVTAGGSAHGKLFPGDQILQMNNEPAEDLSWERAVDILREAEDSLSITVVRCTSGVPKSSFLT

[11] = biological target: DLG4_2, P78352
[12] = biological target: NHERF4_1, Q86UT5-2
[13] = biological target: T6, MPP2, Q14168
T6 sequence (Q14168 180-250, limits assumed, looked up): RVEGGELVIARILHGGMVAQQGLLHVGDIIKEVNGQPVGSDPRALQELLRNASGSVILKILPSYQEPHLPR

[14] = biological target: GRASP, Q7Z6J2
[15] = biological target: HTRA1, Q92743
[16] = biological target: NHERF2_2, Q15599
[17] = biological target: FRMPD2_2, Q68DX3
[18] = biological target: TJP1_3, Q07157
[19] = biological target: T7, NHERF3_4, Q5T2W1
T7 sequence (Q5T2W1 373-468, limits assumed, looked up): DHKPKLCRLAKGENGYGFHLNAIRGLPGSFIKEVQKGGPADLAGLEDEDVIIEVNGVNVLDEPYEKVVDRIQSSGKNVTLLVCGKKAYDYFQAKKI

[20] = biological target: T8, LRRC7, Q96NW7
T8 sequence (Q96NW7 1440-1537, limits assumed, looked up): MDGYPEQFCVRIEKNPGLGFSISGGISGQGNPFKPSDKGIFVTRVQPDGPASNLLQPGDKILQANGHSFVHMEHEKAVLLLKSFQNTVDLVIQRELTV

[21] = biological target: T9, SNTB1, Q13884
T9 sequence (Q13884 107-205, limits assumed, looked up): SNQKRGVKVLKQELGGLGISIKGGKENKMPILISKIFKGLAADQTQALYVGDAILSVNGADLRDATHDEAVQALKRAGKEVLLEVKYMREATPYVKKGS

[22] = biological target: PICK1, Q9NRD5
[23] = biological target: LAP2, Q96RT1
[24] = biological target: T10, SNTG2, Q9NY99
T10 sequence (Q9NY99 68-166, limits assumed, looked up): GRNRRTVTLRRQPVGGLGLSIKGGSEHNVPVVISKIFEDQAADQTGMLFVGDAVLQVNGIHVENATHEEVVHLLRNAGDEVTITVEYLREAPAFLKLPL

[25] = biological target: T11, PTPN13_1, Q12923
T11 sequence (Q12923 1088-1188, limits assumed, looked up): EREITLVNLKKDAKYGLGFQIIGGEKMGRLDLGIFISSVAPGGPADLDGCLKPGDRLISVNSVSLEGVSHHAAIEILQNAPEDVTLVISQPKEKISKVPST

[26] = biological target: DLG1_2, Q12959
[27] = modified: phospho on T at position -1 from the C-terminal residue
[28] = plain residues with an end cap or a label only (N-terminal biotin on a linker: ado-ado)

Chain of FRMPD2_2, Q68DX3 (Q68DX3 944-1038): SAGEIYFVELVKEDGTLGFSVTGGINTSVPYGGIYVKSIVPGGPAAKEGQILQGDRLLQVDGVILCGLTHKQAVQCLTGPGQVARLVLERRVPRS
Chain of TJP1_3, Q07157 (Q07157 416-512): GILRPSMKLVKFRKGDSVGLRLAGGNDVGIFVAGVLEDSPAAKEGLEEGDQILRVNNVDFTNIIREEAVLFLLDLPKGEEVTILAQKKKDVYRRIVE
Chain of MAGI3_2, Q5TCQ9 (Q5TCQ9 398-503): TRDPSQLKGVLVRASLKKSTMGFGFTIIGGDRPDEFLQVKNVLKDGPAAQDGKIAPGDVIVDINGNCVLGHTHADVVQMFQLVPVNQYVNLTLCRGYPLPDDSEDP
Chain of DLG1_2, Q12959 (Q12959 314-412): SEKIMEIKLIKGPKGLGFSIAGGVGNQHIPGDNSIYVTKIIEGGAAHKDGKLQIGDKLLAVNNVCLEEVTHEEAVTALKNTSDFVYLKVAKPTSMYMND
Chain of LAP2, Q96RT1 (Q96RT1 other isoform, or with tags, fused parts or gaps): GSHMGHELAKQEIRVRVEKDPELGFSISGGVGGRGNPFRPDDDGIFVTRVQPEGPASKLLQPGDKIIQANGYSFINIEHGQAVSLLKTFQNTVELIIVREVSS
Chain of Inadl_1, Q8NI35 (Q8NI35 113-229): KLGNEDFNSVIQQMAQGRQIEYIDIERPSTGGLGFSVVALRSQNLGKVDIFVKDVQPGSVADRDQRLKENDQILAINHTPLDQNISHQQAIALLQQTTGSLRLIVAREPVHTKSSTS
Chain of DLG4_3, P78352 (P78352 306-403): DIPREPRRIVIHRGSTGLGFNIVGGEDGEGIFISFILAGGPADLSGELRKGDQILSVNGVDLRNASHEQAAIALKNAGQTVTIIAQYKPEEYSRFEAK
Chain of GRIP2_3, Q9C0E4 (Q9C0E4 238-339): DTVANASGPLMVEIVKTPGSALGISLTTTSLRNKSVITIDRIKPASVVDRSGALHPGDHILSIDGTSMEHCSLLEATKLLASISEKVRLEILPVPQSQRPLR
Chain of Inadl_5, Q8NI35 (Q8NI35 673-780): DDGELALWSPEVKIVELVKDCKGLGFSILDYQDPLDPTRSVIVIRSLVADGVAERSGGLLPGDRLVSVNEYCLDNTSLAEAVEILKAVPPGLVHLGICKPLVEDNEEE
Chain of NHERF2_2, Q15599 (Q15599 142-238): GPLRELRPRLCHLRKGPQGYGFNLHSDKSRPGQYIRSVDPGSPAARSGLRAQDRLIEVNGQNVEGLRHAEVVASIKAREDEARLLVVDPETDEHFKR
Chain of GRASP, Q7Z6J2 (Q7Z6J2 96-193): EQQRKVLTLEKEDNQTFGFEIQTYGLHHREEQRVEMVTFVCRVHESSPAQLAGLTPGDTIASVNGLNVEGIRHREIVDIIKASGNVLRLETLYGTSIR
Chain of HTRA1, Q92743 (Q92743 360-477): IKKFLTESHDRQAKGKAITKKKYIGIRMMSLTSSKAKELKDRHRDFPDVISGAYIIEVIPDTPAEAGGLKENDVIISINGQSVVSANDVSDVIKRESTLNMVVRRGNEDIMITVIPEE
Chain of DLG4_2, P78352 (P78352 155-259): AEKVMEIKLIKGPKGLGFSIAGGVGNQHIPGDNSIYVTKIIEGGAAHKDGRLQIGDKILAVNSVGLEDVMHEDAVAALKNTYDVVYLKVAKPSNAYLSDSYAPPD
Chain of PICK1, Q9NRD5 (Q9NRD5 17-115): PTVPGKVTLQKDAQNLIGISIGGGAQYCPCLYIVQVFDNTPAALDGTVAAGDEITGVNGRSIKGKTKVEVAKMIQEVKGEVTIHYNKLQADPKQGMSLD
Chain of NHERF4_1, Q86UT5-2 (Q86UT5 other isoform, or with tags, fused parts or gaps): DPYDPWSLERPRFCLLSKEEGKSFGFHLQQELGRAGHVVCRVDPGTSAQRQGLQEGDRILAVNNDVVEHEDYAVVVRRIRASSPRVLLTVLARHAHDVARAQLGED

B1: RPS6KA1_-1P, Q15418 (peptide)
chain: RRVRKLPSTTL
pKd [1, 27]: 3.94 | pKd [2, 27]: below the threshold | pKd [3, 27]: 3.5 | pKd [4, 27]: 3.49 | pKd [5, 27]: below the threshold | pKd [6, 27]: 3.48 | pKd [7, 27]: 3.35 | pKd [8, 27]: below the threshold | pKd [9, 27]: below the threshold | pKd [10, 27]: below the threshold | pKd [11, 27]: 3.85 | pKd [12, 27]: 4.23 | pKd [13, 27]: below the threshold | pKd [14, 27]: 3.8 | pKd [15, 27]: 4.7 | pKd [16, 27]: 4.02 | pKd [17, 27]: 3.47 | pKd [18, 27]: below the threshold | pKd [19, 27]: 3.75 | pKd [20, 27]: 3.47 | pKd [21, 27]: 3.91 | pKd [22, 27]: 3.49 | pKd [23, 27]: below the threshold | pKd [24, 27]: 4.16 | pKd [25, 27]: 3.4 | pKd [26, 27]: 3.83

B2: SH2D3C, Q8N5H7 (peptide)
chain: LEPAVRSSEL
pKd [1, 28]: below the threshold | pKd [2, 28]: below the threshold | pKd [3, 28]: below the threshold | pKd [4, 28]: below the threshold | pKd [5, 28]: below the threshold | pKd [6, 28]: 3.85 | pKd [7, 28]: below the threshold | pKd [8, 28]: below the threshold | pKd [9, 28]: below the threshold | pKd [10, 28]: below the threshold | pKd [11, 28]: below the threshold | pKd [12, 28]: 4.18 | pKd [13, 28]: below the threshold | pKd [14, 28]: 4.43 | pKd [15, 28]: below the threshold | pKd [16, 28]: 4.29 | pKd [17, 28]: below the threshold | pKd [18, 28]: below the threshold | pKd [19, 28]: 4.26 | pKd [20, 28]: below the threshold | pKd [21, 28]: 4.11 | pKd [22, 28]: below the threshold | pKd [23, 28]: below the threshold | pKd [24, 28]: below the threshold | pKd [25, 28]: below the threshold | pKd [26, 28]: 4.29

B3: SLC6A3, Q01959 (peptide)
chain: QFTLRHWLKV
pKd [1, 28]: below the threshold | pKd [2, 28]: below the threshold | pKd [3, 28]: below the threshold | pKd [4, 28]: below the threshold | pKd [5, 28]: 3.89 | pKd [6, 28]: 4.1 | pKd [7, 28]: below the threshold | pKd [8, 28]: 3.62 | pKd [9, 28]: below the threshold | pKd [10, 28]: 3.57 | pKd [11, 28]: below the threshold | pKd [12, 28]: below the threshold | pKd [13, 28]: 3.87 | pKd [14, 28]: 3.8 | pKd [15, 28]: 4.45 | pKd [16, 28]: below the threshold | pKd [17, 28]: below the threshold | pKd [18, 28]: below the threshold | pKd [19, 28]: 3.74 | pKd [20, 28]: below the threshold | pKd [21, 28]: below the threshold | pKd [22, 28]: 3.69 | pKd [23, 28]: below the threshold | pKd [24, 28]: below the threshold | pKd [25, 28]: below the threshold | pKd [26, 28]: below the threshold

From article PMC9482650, “Quantitative fragmentomics allow affinity mapping of interactomes” (Nature Communications, 2022)
